Data on five molecules can be found in US20210032365A1 (Chugai, published 2021).

Read-outs that look alike come from different tables or passages of the source.

For test [1], the target named is T1, Serum-derived human C1s (human, UniProt P09871 16-688).
T1 construct: The analyte was C1s purified from serum; also called hC1s
T1 sequence: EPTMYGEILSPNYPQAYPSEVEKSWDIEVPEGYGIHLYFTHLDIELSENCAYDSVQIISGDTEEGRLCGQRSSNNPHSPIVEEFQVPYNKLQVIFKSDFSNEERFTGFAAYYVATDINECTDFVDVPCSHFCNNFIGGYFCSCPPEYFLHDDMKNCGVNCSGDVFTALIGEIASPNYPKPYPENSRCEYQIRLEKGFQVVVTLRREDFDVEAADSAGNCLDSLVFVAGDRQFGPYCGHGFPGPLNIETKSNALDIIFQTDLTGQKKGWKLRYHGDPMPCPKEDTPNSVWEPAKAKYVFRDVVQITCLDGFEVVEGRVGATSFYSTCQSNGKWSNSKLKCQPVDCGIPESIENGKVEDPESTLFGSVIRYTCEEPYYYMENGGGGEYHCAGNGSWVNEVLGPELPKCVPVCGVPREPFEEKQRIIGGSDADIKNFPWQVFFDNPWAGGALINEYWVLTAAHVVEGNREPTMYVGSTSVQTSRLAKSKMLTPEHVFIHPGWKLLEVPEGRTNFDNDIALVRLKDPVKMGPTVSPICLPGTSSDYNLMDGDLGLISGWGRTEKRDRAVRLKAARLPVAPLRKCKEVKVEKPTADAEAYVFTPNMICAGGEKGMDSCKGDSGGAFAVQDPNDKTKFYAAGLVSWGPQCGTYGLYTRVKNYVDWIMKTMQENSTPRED
Nature of the test: SPR Biacore T200, 37 C, antibody captured on protein A/G, pH 7.4, 1.2 mM CaCl2. The procedure: (§1) The binding affinity of all histidine-substituted variants at pH 7.4 and pH 5.8 were determined at 37 degrees C. using Biacore T200 instrument (GE Healthcare). Recombinant Protein A/G (Pierce) was immobilized onto all flow cells of a CM4 sensor chip using amine coupling kit (GE Healthcare). Antibodies and analytes were prepared in 7(+) buffer (20 mM ACES, 150 mM NaCl, 1.2 mM CaCl2, 0.05% Tween 20, 0.005% NaN3, pH 7.4) or 5(+) buffer (20 mM ACES, 150 mM NaCl, 1.2 mM CaCl2), 0.05% Tween 20, 0.005% NaN3, pH 5.8). Each antibody was captured onto the sensor surface by protein A/G. Antibody capture levels were aimed at 200 resonance unit (RU). […] Sensor surface was regenerated each cycle with 10 mM Glycine-HCl pH 1.5. […] An additional dissociation phase at pH 5.8 was integrated immediately after the dissociation phase at pH 7.4. This dissociation rate in 5(+) buffer was determined by processing and fitting data using Scrubber 2.0 (BioLogic Software) curve fitting software.

The target of test [2] is T1, Serum-derived human C1s. Kind of test: SPR Biacore T200, 37 C, ratio of dissociation rates pH 5.8 / pH 7.4, 1.2 mM CaCl2. The procedure:
as §1

Test [3] concerns the target T1, Serum-derived human C1s. Kind of test: SPR Biacore T200, 37 C, antibody captured on protein A/G, pH 5.8, 1.2 mM CaCl2; marked *: not accurately determined, low binding response. The procedure: as §1
Test [4] addresses T1, Serum-derived human C1s. Nature of the test: SPR Biacore T200, 37 C, ratio of dissociation rates pH 5.8 / pH 7.4, 1.2 mM CaCl2. The procedure:
(§2) The binding affinity of all histidine-substituted variants at pH 7.4 and pH 5.8 were determined at 37 degrees C. using Biacore T200 instrument (GE Healthcare). Recombinant Protein A/G (Pierce) was immobilized onto all flow cells of a CM4 sensor chip using amine coupling kit (GE Healthcare). Antibodies and analytes were prepared in 7(+) buffer (20 mM ACES, 150 mM NaCl, 1.2 mM CaCl2), 0.05% Tween 20, 0.005% NaN3, pH 7.4) or 5(+) buffer (20 mM ACES, 150 mM NaCl, 1.2 mM CaCl2, 0.05% Tween 20, 0.005% NaN3, pH 5.8). Each antibody was captured onto the sensor surface by protein A/G. Antibody capture levels were aimed at 200 resonance unit (RU). Serum-derived human C1s was injected at 50 nM, followed by dissociation. Sensor surface was regenerated each cycle with 10 mM Glycine-HCl pH 1.5. […] An additional dissociation phase at pH 5.8 was integrated immediately after the dissociation phase at pH 7.4. This dissociation rate in 5(+) buffer was determined by processing and fitting data using Scrubber 2.0 (BioLogic Software) curve fitting software (Table 9).
The source holds these as a separate data set. On the technique in general: In SPR one partner is held on a chip, and binding of the other changes the refractive index at the surface.

Test [5] addresses T1, Serum-derived human C1s. Kind of test: SPR Biacore T200, 37 C, antibody captured on protein A/G, C1s at 50 nM, pH 7.4, 1.2 mM CaCl2. The procedure:
as §2

In test [6] the target is T1, Serum-derived human C1s. Kind of test: SPR Biacore T200, 37 C, added dissociation phase at pH 5.8 (1.2 mM CaCl2) straight after that at pH 7.4. The procedure: as §2
Test [7] has as its target T2, human C1s (human, UniProt P09871 16-688).
T2 construct: Analyte in the Biacore assays; also called hC1s; serum-derived human C1s (CompTech)
T2 sequence: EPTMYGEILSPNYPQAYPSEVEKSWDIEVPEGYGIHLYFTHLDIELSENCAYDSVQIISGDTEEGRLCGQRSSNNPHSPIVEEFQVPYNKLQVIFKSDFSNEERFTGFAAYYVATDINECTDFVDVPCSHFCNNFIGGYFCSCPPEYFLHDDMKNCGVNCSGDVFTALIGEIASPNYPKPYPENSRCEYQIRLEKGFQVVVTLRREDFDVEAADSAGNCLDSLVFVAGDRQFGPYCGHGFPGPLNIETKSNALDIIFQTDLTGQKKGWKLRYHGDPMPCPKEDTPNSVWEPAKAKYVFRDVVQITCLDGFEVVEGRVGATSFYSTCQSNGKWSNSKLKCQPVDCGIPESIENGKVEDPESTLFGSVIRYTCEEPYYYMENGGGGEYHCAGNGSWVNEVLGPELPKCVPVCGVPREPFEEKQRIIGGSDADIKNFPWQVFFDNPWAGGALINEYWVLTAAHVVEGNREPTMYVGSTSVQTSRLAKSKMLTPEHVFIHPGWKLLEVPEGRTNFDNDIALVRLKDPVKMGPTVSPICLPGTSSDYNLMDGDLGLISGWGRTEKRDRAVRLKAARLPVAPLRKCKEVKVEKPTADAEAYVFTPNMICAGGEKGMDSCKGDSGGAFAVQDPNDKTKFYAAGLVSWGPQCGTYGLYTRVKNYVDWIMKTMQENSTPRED
Nature of the test: SPR; KD at pH 5.8 over KD at pH 7.4, both 1.2 mM Ca. On the procedure:
as §1, with “software. […]” for “software.”

Test [8] addresses T2, human C1s. Kind of test: SPR (Biacore T200, 37C), Ab captured on protein A/G, serum C1s 12.5 and 50 nM; pH 7.4, 1.2 mM Ca. On the procedure:
as §1

In test [9] the target is T2, human C1s. Kind of test: SPR (Biacore T200, 37C), Ab captured on protein A/G, serum C1s 200 and 800 nM; pH 5.8, 1.2 mM Ca. On the procedure:
as §1

Test [10] addresses T2, human C1s. Nature of the test: SPR; koff (5.8+ of 775+): extra dissociation phase at pH 5.8 (1.2 mM Ca) right after the pH 7.4 dissociation, Scrubber fit. On the procedure:
as §1

B1: IPN92H0286/IPN93L0205-SG136 (antibody, human IgG1, kappa, name in Kabat numbering)
heavy: EVMLVESGGGLVKPGGSLRLSCAASGFTFSNKAMSWVRQAPGKGLEWVATISSGGSHTYYLDSVKHRFTISRDNSKDTLYLQMNSLRAEDTALYYCARLFTGHAMDYWGQGTLVTVSSASTKGPSVFPLAPSSKSTSGGTAALGCLVKDYFPEPVTVSWNSGALTSGVHTFPAVLQSSGLYSLSSVVTVPSSSLGTQTYICNVNHKPSNTKVDKKVEPKSCDKTHTCPPCPAPELRRGPSVFLFPPKPKDTLMISRTPEVTCVVVDVSHEDPEVKFNWYVDGVEVHNAKTKPREEQYNSTYRVVSVLTVLHQDWLNGKEYKCKVSNKGLPSSIEKTISKAKGQPREPQVYTLPPSREEMTKNQVSLTCLVKGFYPSDIAVEWESNGQPENNYKTTPPVLDSDGSFFLYSKLTVDKSRWQQGNVFSCSVMHEALHNHYTQKSLSLSP
light: QIVLTQSPATLSLSPGERATLSCTASSSVSSSRLHWYQQKPGKAPKLWIYSTSNLASGVPSRFSGSGSGTDYTLTISSLQPEDFATYYCHQYHRHPPITFGQGTKLEIKRTVAAPSVFIFPPSDEQLKSGTASVVCLLNNFYPREAKVQWKVDNALQSGNSQESVTEQDSKDCTYSLSSTLTLSKADYEKHKVYACEVTHQGLSSPVTKSFNRGEC
notes: Substitutions are numbered by Kabat
Consider B1, for which, in the test with Serum-derived human C1s [1], the Kd – broadly, the free concentration of one partner at which half of the binding sites on the other are occupied at equilibrium, for simple one-to-one binding – came to 1.43 nM and the kon (as a rule, a measure of how fast the partners come together) was found to be 574000 M⁻¹ s⁻¹. For the same molecule, the “koff (5.8+ of 775+)/koff (7.4+)” value with Serum-derived human C1s [2] is 16.3. In the test with Serum-derived human C1s [3], the affinity, expressed as Kd, was 8530 nM; the koff (usually a measure of how fast the partners let go of each other) turned out to be 0.0237 s⁻¹; the kon was determined as 2780 M⁻¹ s⁻¹.

B2: C1_IPN009VH2-SG4GK/IPN009VK3-SK1 (antibody, human IgG4 S228P, kappa)
heavy: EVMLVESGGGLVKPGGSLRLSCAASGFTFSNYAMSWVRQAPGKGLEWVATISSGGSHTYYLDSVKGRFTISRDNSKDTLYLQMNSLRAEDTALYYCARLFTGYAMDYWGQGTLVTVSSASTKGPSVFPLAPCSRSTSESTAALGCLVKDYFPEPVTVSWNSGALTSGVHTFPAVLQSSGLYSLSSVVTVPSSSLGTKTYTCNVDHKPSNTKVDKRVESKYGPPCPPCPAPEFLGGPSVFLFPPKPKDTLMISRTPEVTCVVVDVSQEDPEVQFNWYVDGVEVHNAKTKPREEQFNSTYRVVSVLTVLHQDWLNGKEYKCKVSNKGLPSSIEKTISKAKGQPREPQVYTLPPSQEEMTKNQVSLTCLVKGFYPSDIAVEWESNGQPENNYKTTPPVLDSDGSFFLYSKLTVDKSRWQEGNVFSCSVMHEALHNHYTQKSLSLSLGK
light: QIVLTQSPATLSLSPGERATLSCTASSSVSSSYLHWYQQKPGKAPKLWIYSTSNLASGVPSRFSGSGSGTDYTLTISSLQPEDFATYYCHQYYRLPPITFGQGTKLEIKRTVAAPSVFIFPPSDEQLKSGTASVVCLLNNFYPREAKVQWKVDNALQSGNSQESVTEQDSKDSTYSLSSTLTLSKADYEKHKVYACEVTHQGLSSPVTKSFNRGEC
notes: also called IPN009VH2/IPN009VK3; IPN09VH2/IPN09VK3
For B2, in the test with Serum-derived human C1s [4], the “koff (5.8+ of 775+)/koff (7.4+)” value worked out at 0.4. In the test with Serum-derived human C1s [5], the koff amounted to 0.00037 s⁻¹ and the kon was 298000 M⁻¹ s⁻¹. Moreover, the koff in the test with Serum-derived human C1s [6] stood at 0.000148 s⁻¹.

B3: IPN92H0281/IPN93L0024-SG136 (antibody, human IgG1, kappa, name in Kabat numbering)
heavy: EVMLVESGGGLVKPGGSLRLSCAASGFTFSNYAMSWVRQAPGKGLEWVATISSGGSKTYELDSVDERFTISRDNSKDTLYLQMNSLRAEDTALYYCARLFTKHAMDYWGQGTLVTVSSASTKGPSVFPLAPSSKSTSGGTAALGCLVKDYFPEPVTVSWNSGALTSGVHTFPAVLQSSGLYSLSSVVTVPSSSLGTQTYICNVNHKPSNTKVDKKVEPKSCDKTHTCPPCPAPELRRGPSVFLFPPKPKDTLMISRTPEVTCVVVDVSHEDPEVKFNWYVDGVEVHNAKTKPREEQYNSTYRVVSVLTVLHQDWLNGKEYKCKVSNKGLPSSIEKTISKAKGQPREPQVYTLPPSREEMTKNQVSLTCLVKGFYPSDIAVEWESNGQPENNYKTTPPVLDSDGSFFLYSKLTVDKSRWQQGNVFSCSVMHEALHNHYTQKSLSLSP
light: QIVLTQSPATLSLSPGERATLSCTASSSVSSSYLHWYQQKPGKAPKLWIYSTSNLASGVPSRFSGSGSGTDYTLTISSLQPEDFATYYCHQYYRLHPITFGQGTKLEIKRTVAAPSVFIFPPSDEQLKSGTASVVCLLNNFYPREAKVQWKVDNALQSGNSQESVTEQDSKDCTYSLSSTLTLSKADYEKHKVYACEVTHQGLSSPVTKSFNRGEC
notes: also called IPN92H0281/IPN93L0024 (lot PPU2047); IPN92H281/IPN93L0024-SG136
For the molecule B3, the “KD (5.8+)/KD (7.4+)” value in the test with human C1s [7] is 60.9. For the same molecule, the Kd with human C1s [8] was determined as 2.02 nM; with human C1s [9], 123 nM. The koff in the test with human C1s [8] was 0.000645 s⁻¹; with human C1s [9], 0.0267 s⁻¹; with human C1s [10], 0.0247 s⁻¹. For the same molecule, the kon with human C1s [9] amounted to 217000 M⁻¹ s⁻¹.

B4: C1_IPN009VH2-SG4GK/IPN93L0026-SK1 (antibody, V domains shown)
VH: EVMLVESGGGLVKPGGSLRLSCAASGFTFSNYAMSWVRQAPGKGLEWVATISSGGSHTYYLDSVKGRFTISRDNSKDTLYLQMNSLRAEDTALYYCARLFTGYAMDYWGQGTLVTVSS
VL: QIVLTQSPATLSLSPGERATLSCTASSSVSSSYLHWYQQKPGKAPKLWIYSTSNLASGVPSRFSGSGSGTDYTLTISSLQPEDFATYYCHQYYRLPPHTFGQGTKLEIKR
notes: It is read here as I96H (Kabat) in the VL IPN009VK3
B4: in the test with Serum-derived human C1s [4], the “koff (5.8+ of 775+)/koff (7.4+)” value was found to be 0.77. In the test with Serum-derived human C1s [5], this molecule yielded a Kd of 4.28 nM, a dissociation rate constant (koff) of 0.0015 s⁻¹ and a kon of 350000 M⁻¹ s⁻¹. For the same molecule, in the test with Serum-derived human C1s [6], the koff came to 0.00115 s⁻¹.

B5: C1_IPN92H0012-SG4GK/IPN009VK3-SK1 (antibody, V domains shown)
VH: EVMLVESGGGLVKPGGSLRLSCAASGFTFSNYAMSWVRQAPGKGLEWVATHSSGGSHTYYLDSVKGRFTISRDNSKDTLYLQMNSLRAEDTALYYCARLFTGYAMDYWGQGTLVTVSS
VL: QIVLTQSPATLSLSPGERATLSCTASSSVSSSYLHWYQQKPGKAPKLWIYSTSNLASGVPSRFSGSGSGTDYTLTISSLQPEDFATYYCHQYYRLPPITFGQGTKLEIKR
notes: Single histidine variant of the VH IPN009VH2, with SG4GK and SK1 constant regions
In the case of B5, in the test with Serum-derived human C1s [4], the “koff (5.8+ of 775+)/koff (7.4+)” value is 0.57. In the test with Serum-derived human C1s [5], this molecule had a koff of 0.00192 s⁻¹ and a kon of 183000 M⁻¹ s⁻¹. For the same molecule, the koff in the test with Serum-derived human C1s [6] is 0.00109 s⁻¹.
